{"source": "patent US20120190834A1", "key": {"[1]": {"biological_target": "TFPI (source not stated; Examples 8, 12 and 45), P10646", "sequence (P10646 whole entry, looked up)": "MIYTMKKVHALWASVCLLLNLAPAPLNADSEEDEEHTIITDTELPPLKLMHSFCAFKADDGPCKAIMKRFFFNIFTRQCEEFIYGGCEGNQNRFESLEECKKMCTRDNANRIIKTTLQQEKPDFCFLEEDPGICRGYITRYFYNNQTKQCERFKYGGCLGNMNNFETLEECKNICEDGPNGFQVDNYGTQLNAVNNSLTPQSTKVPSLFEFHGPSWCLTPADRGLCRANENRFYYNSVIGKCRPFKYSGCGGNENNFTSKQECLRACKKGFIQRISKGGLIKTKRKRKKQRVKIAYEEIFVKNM"}, "[2]": {"biological_target": "recombinant human TFPI purified from a cell line from Novo Nordisk"}}, "data": [{"protein": "Factor Xa (source not stated; Example 45) (protein) chain 1: ANSFLEEMKKGHLERECMEETCSYEEAREVFEDSDKTNEFWNKYKDGDQCETSPCQNQGKCKDGLGEYTCTCLEGFEGKNCELFTRKLCSLDNGDCDQFCHEEQNSVVCSCARGYTLADNGKACIPTGPYPCGKQTLER chain 2: IVGGQECKDGECPWQALLINEENEGFCGGTILSEFYILTAAHCLYQAKRFKVRVGDRNTEQEEGGEAVHEVEVVIKHNRFTKETYDFDIAVLRLKTPITFRMNVAPACLPERDWAESTLMTQKTGIVSGFGRTHEKGRQSTRLKMLEVPYVDRNSCKLSSSFIITQNMFCAGYDTKQEDACQGDSGGPHVTRFKDTYFVTGIVSWGEGCARKGKYGIYTKVTAFLKWIDRSMKTRGLPKAKSHAPEVITSSPLK", "values": [{"measurement": "FXa (1 nM) cleavage of chromogenic substrate S-2765, substrate added last", "setting": "[1]", "result": "In the presence of ≧8 nM TFPI, inhibition is nearly complete under these conditions and little product is formed"}]}, {"protein": "prothrombinase complex: factor Xa (Enzyme Research Laboratories) and factor Va (Haematologic Technologies) on phospholipid membrane (protein) chain 1: ANSFLEEMKKGHLERECMEETCSYEEAREVFEDSDKTNEFWNKYKDGDQCETSPCQNQGKCKDGLGEYTCTCLEGFEGKNCELFTRKLCSLDNGDCDQFCHEEQNSVVCSCARGYTLADNGKACIPTGPYPCGKQTLER chain 2: IVGGQECKDGECPWQALLINEENEGFCGGTILSEFYILTAAHCLYQAKRFKVRVGDRNTEQEEGGEAVHEVEVVIKHNRFTKETYDFDIAVLRLKTPITFRMNVAPACLPERDWAESTLMTQKTGIVSGFGRTHEKGRQSTRLKMLEVPYVDRNSCKLSSSFIITQNMFCAGYDTKQEDACQGDSGGPHVTRFKDTYFVTGIVSWGEGCARKGKYGIYTKVTAFLKWIDRSMKTRGLPKAKSHAPEVITSSPLK chain 3: AQLRQFYVAAQGISWSYRPEPTNSSLNLSVTSFKKIVYREYEPYFKKEKPQSTISGLLGPTLYAEVGDIIKVHFKNKADKPLSIHPQGIRYSKLSEGASYLDHTFPAEKMDDAVAPGREYTYEWSISEDSGPTHDDPPCLTHIYYSHENLIEDFNSGLIGPLLICKKGTLTEGGTQKTFDKQIVLLFAVFDESKSWSQSSSLMYTVNGYVNGTMPDITVCAHDHISWHLLGMSSGPELFSIHFNGQVLEQNHHKVSAITLVSATSTTANMTVGPEGKWIISSLTPKHLQAGMQAYIDIKNCPKKTRNLKKITREQRRHMKRWEYFIAAEEVIWDYAPVIPANMDKKYRSQHLDNFSNQIGKHYKKVMYTQYEDESFTKHTVNPNMKEDGILGPIIRAQVRDTLKIVFKNMASRPYSIYPHGVTFSPYEDEVNSSFTSGRNNTMIRAVQPGETYTYKWNILEFDEPTENDAQCLTRPYYSDVDIMRDIASGLIGLLLICKSRSLDRRGIQRAADIEQQAVFAVFDENKSWYLEDNINKFCENPDEVKRDDPKFYESNIMSTINGYVPESITTLGFCFDDTVQWHFCSVGTQNEILTIHFTGHSFIYGKRHEDTLTLFPMRGESVTVTMDNVGTWMLTSMNSSPRSKKLRLKFRDVKCIPDDDEDSYEIFEPPESTVMATRKMHDRLEPEDEESDADYDYQNRLAAALGIR chain 4: SNNGNRRNYYIAAEEISWDYSEFVQRETDIEDSDDIPEDTTYKKVVFRKYLDSTFTKRDPRGEYEEHLGILGPIIRAEVDDVIQVRFKNLASRPYSLHAHGLSYEKSSEGKTYEDDSPEWFKEDNAVQPNSSYTYVWHATERSGPESPGSACRAWAYYSAVNPEKDIHSGLIGPLLICQKGILHKDSNMPMDMREFVLLFMTFDEKKSWYYEKKSRSSWRLTSSEMKKSHEFHAINGMIYSLPGLKMYEQEWVRLHLLNIGGSQDIHVVHFHGQTLLENGNKQHQLGVWPLLPGSFKTLEMKASKPGWWLLNTEVGENQRAGMQTPFLIMDRDCRMPMGLSTGIISDSQIKASEFLGYWEPRLARLNNGGSYNAWSVEKLAAEFASKPWIQVDMQKEVIITGIQTQGAKHYLKSCYTTEFYVAYSSNQINWQIFKGNSTRNVMYFNGNSDASTIKENQFDPPIVARYIRISPTRAYNRPTLRLELQGCEVNGCSTPLGMENGKIENKQITASSFKKSWWGDYWEPFRARLNAQGRVNAWQAKANNNKQWLEIDLLKIKKITAIITQGCKSLSSEMYVKSYTIHYSEQGVEWKPYRLKSSMVDKIFEGNTNTKGHVKNFFNPPIISRFIRVIPKTWNQSIALRLELFGCDIY", "values": [{"measurement": "prothrombinase activity (thrombin generation from prothrombin, chromogenic thrombin substrate); 1 nM TFPI (fraction of activity)", "setting": "[2]", "result": 0.33}]}, {"protein": "Factor Xa (Enzyme Research Laboratories) (protein) chain 1: ANSFLEEMKKGHLERECMEETCSYEEAREVFEDSDKTNEFWNKYKDGDQCETSPCQNQGKCKDGLGEYTCTCLEGFEGKNCELFTRKLCSLDNGDCDQFCHEEQNSVVCSCARGYTLADNGKACIPTGPYPCGKQTLER chain 2: IVGGQECKDGECPWQALLINEENEGFCGGTILSEFYILTAAHCLYQAKRFKVRVGDRNTEQEEGGEAVHEVEVVIKHNRFTKETYDFDIAVLRLKTPITFRMNVAPACLPERDWAESTLMTQKTGIVSGFGRTHEKGRQSTRLKMLEVPYVDRNSCKLSSSFIITQNMFCAGYDTKQEDACQGDSGGPHVTRFKDTYFVTGIVSWGEGCARKGKYGIYTKVTAFLKWIDRSMKTRGLPKAKSHAPEVITSSPLK", "values": [{"measurement": "FXa (0.2 nM) cleavage of chromogenic substrate Pefachrome FXa 5523; 2 nM TFPI", "setting": "[2]", "result": "When TFPI and the chromogenic substrate were added to FXa at the same time, the rate of substrate cleavage decreased gradually as FXa was inhibited by TFPI"}]}, {"protein": "tissue factor:Factor VIIa complex (sources not stated; Examples 8 and 12) (protein) chain 1: SGTTNTVAAYNLTWKSTNFKTILEWEPKPVNQVYTVQISTKSGDWKSKCFYTTDTECDLTDEIVKDVKQTYLARVFSYPAGNVESTGSAGEPLYENSPEFTPYLETNLGQPTIQSFEQVGTKVNVTVEDERTLVRRNNTFLSLRDVFGKDLIYTLYYWKSSSSGKKTAKTNTNEFLIDVDKGENYCFSVQAVIPSRTVNRKSTDSPVECMGQEKGEFREIFYIIGAVVFVVIILVIILAISLHKCRKAGVGQSWKENSPLNVS chain 2: ANAFLEELRPGSLERECKEEQCSFEEAREIFKDAERTKLFWISYSDGDQCASSPCQNGGSCKDQLQSYICFCLPAFEGRNCETHKDDQLICVNENGGCEQYCSDHTGTKRSCRCHEGYSLLADGVSCTPTVEYPCGKIPILEKRNASKPQGR chain 3: IVGGKVCPKGECPWQVLLLVNGAQLCGGTLINTIWVVSAAHCFDKIKNWRNLIAVLGEHDLSEHDGDEQSRRVAQVIIPSTYVPGTTNHDIALLRLHQPVVLTDHVVPLCLPERTFSERTLAFVRFSLVSGWGQLLDRGATALELMVLNVPRLMTQDCLQQSRKVGDSPNITEYMFCAGYSDGSKDSCKGDSGGPHATHYRGTWYLTGIVSWGQGCATVGHFGVYTRVSQYIEWLQKLMRSEPRPGVLLRAPFP", "values": [{"measurement": "TF:FVIIa activity, hydrolysis of fluorogenic substrate SN-17c; 8 nM TFPI", "setting": "[1]", "result": "TFPI inhibited approximately 50% of TF:FVIIa activity under these conditions"}, {"measurement": "rate of FXa generation in the extrinsic tenase (Xase) assay (chromogenic FXa substrate, A405), normalised at 4 minutes; 1 nM TFPI", "setting": "[1]", "result": "TFPI reduced the rate of FXa generation at 4 minutes by nearly 70%"}]}, {"protein": "extrinsic Xase complex: re-lipidated recombinant human tissue factor (Innovin) and factor VIIa (Enzyme Research Laboratories) (protein) chain 1: SGTTNTVAAYNLTWKSTNFKTILEWEPKPVNQVYTVQISTKSGDWKSKCFYTTDTECDLTDEIVKDVKQTYLARVFSYPAGNVESTGSAGEPLYENSPEFTPYLETNLGQPTIQSFEQVGTKVNVTVEDERTLVRRNNTFLSLRDVFGKDLIYTLYYWKSSSSGKKTAKTNTNEFLIDVDKGENYCFSVQAVIPSRTVNRKSTDSPVECMGQEKGEFREIFYIIGAVVFVVIILVIILAISLHKCRKAGVGQSWKENSPLNVS chain 2: ANAFLEELRPGSLERECKEEQCSFEEAREIFKDAERTKLFWISYSDGDQCASSPCQNGGSCKDQLQSYICFCLPAFEGRNCETHKDDQLICVNENGGCEQYCSDHTGTKRSCRCHEGYSLLADGVSCTPTVEYPCGKIPILEKRNASKPQGR chain 3: IVGGKVCPKGECPWQVLLLVNGAQLCGGTLINTIWVVSAAHCFDKIKNWRNLIAVLGEHDLSEHDGDEQSRRVAQVIIPSTYVPGTTNHDIALLRLHQPVVLTDHVVPLCLPERTFSERTLAFVRFSLVSGWGQLLDRGATALELMVLNVPRLMTQDCLQQSRKVGDSPNITEYMFCAGYSDGSKDSCKGDSGGPHATHYRGTWYLTGIVSWGQGCATVGHFGVYTRVSQYIEWLQKLMRSEPRPGVLLRAPFP", "values": [{"measurement": "FXa generation by the extrinsic Xase (chromogenic FXa substrate); 2 nM TFPI", "setting": "[2]", "result": "curve #6 shows that TFPI shuts down Xa generation in the absence of ARC19499"}]}]}
